Results as given in the nanobody polyreactivity screen of Harvey et al. (2022).

Assay: yeast display, Sf9 membrane polyspecificity reagent, FACS + sequencing; frameworks hold sequencing errors
Method in brief: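 Nanobodies came from a synthetic yeast display library in Saccharomyces cerevisiae BJ5465, induced with galactose for 36–48 hours and stained for 1 hour at 4 °C with 10% biotinylated, detergent-solubilized Sf9 membrane reagent. Cells were enriched on streptavidin microbeads and then FACS-sorted, with low and high (top ~1%) gates set on anti-HA fluorescence for expression and streptavidin fluorescence for reagent binding. Each polyreactivity label reflects the gate a clone came from. Genes were amplified by colony PCR, sequenced by MiSeq 2 × 250 and filtered by CDR length.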

## QVQLVESGGGLVQAGGSLRLSCAASGFIFSTYAMGWYRQAPGKERELVASTSRRAGRTYYADSVKGRFTISRDNAKNTVYLQMNSLKPEDTAVYYCAAEARVGYHFQILDYWGQGTQVTVSS
  polyreactivity (PSR sort gate): high polyreactivity

## QVQLVESGGGLVQAGGSLRLSCAASGSTFGYNAMGWYRQAPGKERELVAGISSGGSTNYADSVKGRFTISRDNAKNTVYLQMNSLKPEDTAVYYCNVDERQFSTVYPYRQFDYWGQVTQVTVSS
  polyreactivity (PSR sort gate): low polyreactivity

## QVQLVESGGGLVQAGGSLRLSCADSGNIFYKNTMGWYRQAPGKERELVAAISVSGGGTYYADSVKGRFTISRDNAKNTVYLQMNSLKPEDTAVYYCAATWRQHPGSMGYWGLGTQVTVSS
  polyreactivity (PSR sort gate): high polyreactivity

## QVQLVESGGGLVQAGGSLRLSCAASGRIFYIYAMGWYRQAPGKERELVATISVSGGRTYYADSVKGRFTISRDNAKNTVYLQMNSLKPEDTAVYYCAKECRFNIHKWYDYWGQGTQVTVSS
  polyreactivity (PSR sort gate): low polyreactivity

## QVQLVESGGGLVQAGGSLRLSCAASGSTLHYNAMGWYRQAPGKERELVARISWSGGSTYYADSVKGRFTISRDTAKNTVYLQMNSLKPEDTAVYYCAAPRYGHYTWLYDYWGQGTQVTVSS
  polyreactivity (PSR sort gate): low polyreactivity

## QVQLVESGGGVVQAGGSLRVSCAASGRIFYGNAMGWYRQAPGKERELVAVISSGGSTYYADSVKGRFTISRDNAKNTVYFQMNSLKPEDTAVYYCAAQVRKYKDGSFRYHYWGQGTQVNVSS
  polyreactivity (PSR sort gate): high polyreactivity

## QVQLQESGGLVQAGGMRLSCEASGSVSYQEAMGWYRQAPGKERELVATISFGANTNYADIVKGRFTISRDNAKNTVYLQMNSLKPEDTAVYYCAAESLFDDYYGYWGQGTQVTVSS
  polyreactivity (PSR sort gate): low polyreactivity

## QVHLVESGGGLVQAGGSLRLSCAASGGIFLENAMGWYRQAPGKERELVAAISYNGGRTYYADSVKGRFTISRDNAKNTVYLQMNSLKPEDTAVYYCNAASPYYDSWGQGTQVTVSS
  polyreactivity (PSR sort gate): high polyreactivity

## QVQLVESGGGLVQAGGSLRLTCAASGFIYADNAMGWDRQAPGQERELVAAISGSGGGTYYADSVKGRFTISRDNAKNTVYLQMNSLKPEDTAVYYCAKSQYHRFDYWGQGTQVTVSS
  polyreactivity (PSR sort gate): low polyreactivity

## QVQLVESGGGLVQAGGSLRLSCAASGRTIRWNDMGWYRQAPGKERELVAAITSRGGSTYYADSVKGRFTISRDNAMNTVYFQMNSLKPEDTAVYYCAKQPKPPPVTGYDYWGQGSQVTVSS
  polyreactivity (PSR sort gate): high polyreactivity

## QVQLVESGGGLVQAGGSLRLSCAASGSIFGVYAMGWYRQAPGKERELVAGITFGDSTTYYADSVKGRFTISRDNAKNTVYLQMNSLKPEDTAVYYCAADNRWEDYKVDYWGQGTQVTVSS
  polyreactivity (PSR sort gate): low polyreactivity

## QVQLVESGGGLVQAGGSLRLSCAASGSIFEPYAMGWYRQAPGKERELVAAIRVSGGSTYYADSVKGRFTISRDNAKNTVYLQMNSLKPEDTAVYYCAADWWSRYYYWGQGTQVTVSS
  polyreactivity (PSR sort gate): high polyreactivity

## QVHLVESGGGLVQAGGSLRLSCAASGRTFSGYAMGWYRQAPGKERELVAAITSSGSSTYYADSVKGRFTISRDNAKNTVYLQMNSLKPEDTAVYYCAATPQAHSERYYYQRKYDYWGQGTQVTVSS
  polyreactivity (PSR sort gate): low polyreactivity

## QVQIVESGGGLVQAGGSLRLSCASSGIIFWPNAMGWYRQAPGKERELVASITSGGYTYYADYVKGRFTISRDNAKNTVYLQMNSLKPEDTAVYYCAAEWYPYGPKRYYWGQGTQVTVSS
  polyreactivity (PSR sort gate): low polyreactivity

## QVQLVESGGGLVQAGGSLRLSCAASGSIFKSYAMGWYRQAPGKERELVAVISDSGSTYYADSVKGRFTISRDNAKNTVYLQMNSLKPEDTAVYYCRCRGRRNEYWGQGTQVTVSS
  polyreactivity (PSR sort gate): high polyreactivity

## QVQLVESGGGLVQAGGSLRLSCAASGRIFRYYAMGWYRQAPGKERELVAAITGRGTSTYYADSVKGRFTISRDNAKNTVYVQMNSLKPEDTAVYYCAAGSVLRYWAGDYWGQGTQVTVSS
  polyreactivity (PSR sort gate): low polyreactivity

## QVQLVESGGGLVQAGGSLRLSCAASGRTFKLYAMGWYRQAPGKERELVAAITESGGSTYYAVSVKGRFTISRDNAKNTVYLQMNSLKPEDTAVYYCAAYASAGTRGGYDYWGQGTQVTVSS
  polyreactivity (PSR sort gate): low polyreactivity

## QVQLVESGGGLVQAGGSLRLSCAASGFIFRWYAMGWSRQAPGKERELVAAISRSGDSTYYADSVKGRFTISRDNAKNTVYLQMNSLKPEDSAVYYCAADDRYYTYGYDYWGQGTQVTVSS
  polyreactivity (PSR sort gate): low polyreactivity

## PVQLVESGGGLVQAGGSLRLSCAASGSTFRRNVMGWYRQAPGKEREFVAAISYRTGSTYYADSVKGRFTISRDNAKNTVYLQMNSLKPEDTAVYYCAASSQWVGYYYWGQGTQVTVSS
  polyreactivity (PSR sort gate): high polyreactivity

## QVQLVESGGGLVQAGGSLRLSCAASGSILRKYAMGWYRQAPGKERELVAAISWSGGSTYYADSVKGRFTISRDNAKNTVYVQMNSLKPEDTAVYYCNRDGLSRPYYYWGQGTQVTVSS
  polyreactivity (PSR sort gate): high polyreactivity

## QVQIVESGGGLVQAGGSLRLSCAASGRIFVVIAMGWYRQAPGKERELVATITRGASTYADSVKGRFTISRDNAKNTVYLQMNSLKPEDTAVYYCAAAKRPQVVRYDWTKLEYWGQGTQVTVSS
  polyreactivity (PSR sort gate): high polyreactivity

## QVQLVESGGGLVQAGGSLRLSCAASGFTFAGYGMGWYRQAPGKERELVAAISSSGGSTYYADSVKGRFTISRDNAKNTVYLQMNSLIPEDTAVYYCAAGRPYGDGDYWGQGTQVNVSS
  polyreactivity (PSR sort gate): high polyreactivity

## QVQLVESGGGLVQAGGSLRLSCAASGSIFGSNAMGWYRQAPGKERELVAANSKSGGSTYYADSVKGRFTISRDNAKITVYLQMNSLKPEDTAVYYCNARWWVVTFYGRYEGDYWGQGTQVTVSS
  polyreactivity (PSR sort gate): low polyreactivity

## QVQLVESGGGLVQAGGSLRLSCAASGFTFASYAMGWYRQAPGKEREFVAAITRSGGSTYYADSVKGRFTISRDNAKNTVYLQMNSLKPEDTAVYYCNRVTSSEFDYWGQGTQVTVSS
  polyreactivity (PSR sort gate): high polyreactivity

## QVQLVESGGGLVQAGGSLRLSCAASGSTIGPYARGWYRQAPGKERELVAAIRYSSVRTYYADSVKGRFTISRDNAKNTVYLQMKSLKPEDTAVYYCNAVFWSYTEWGRSDYWGQGTEVTVSS
  polyreactivity (PSR sort gate): low polyreactivity

## QVQLVESGGGLVQAGGSLRLSCAASGFIFYSYAMGWYRQAPGKERELVAAISGSGGSTYYADSVKGRFTISRDNAKNTVYLQMNSLKPEDTAVYYCAAALTFRMDYWGQGTQVTVSS
  polyreactivity (PSR sort gate): high polyreactivity

## QVQLVESGGGLVQAGGSLRLTCAASAFIFHFNAMGWYRQAPGKERELVAAISRTGGTTYYADSVKGRFTISRDNAKNTVYLQMNSLKPEDTAVYYCAAYSKYGQHYDYWGQGTQVTVSS
  polyreactivity (PSR sort gate): high polyreactivity

## QVQLVESGGGLVQAGGSLRLSCAASGRIFGYNAMGWYRQAPGKERELVAAINSDGSKNYADSVKGRFTISRDNAKNTVYLQINSLNPEDTAVYYCAARWISVWSEGAEHDYWGQGTQVTVSS
  polyreactivity (PSR sort gate): low polyreactivity

## HVQLVESGGGLVQAGGSLRLSCAASGSIFPRYSMGRYRQAPGKEMELVAAITSGGSTYYADSVKGRFTISRDNAKNTVYLQMNSLKPEDTAVYYCAATIYRPKGGTYGWYGYDYWGQGTQVTVSS
  polyreactivity (PSR sort gate): high polyreactivity

## QVQLVESGGGLVQAGGSLRLSCAASGFIFTRYAMGWYRQAPGKERELVAAISASGGSTYYADSVKGRFTISRDNAKNTVYLQMNSLKPEDTAVYYCAAVPYRYTYDYWGQGTQVTVSS
  polyreactivity (PSR sort gate): high polyreactivity

## QVQLVESGGGLVQAGGSLRLSCAASGITFYRYVMGWYRQAPGKERELVAAISDSTGSTYYADSVKGRFTISRDNAKNTVYLQMNSLKPEDTAVYYCAAGWFYATYWRFYYWGQGTQVTVSS
  polyreactivity (PSR sort gate): low polyreactivity

## QVQLVESGGGLVQAGGSLRLSCAASGRTFPGYAMGWYRQAPGKERELVAAITSSGDDTYYADSVKGRFTISRDNAKNTVYLQMNSLKPEDTAVYYCRLFRRSADSSYDYEYWGQGTQVTVSS
  polyreactivity (PSR sort gate): low polyreactivity

## QVQLVESGGGLVQAGGSLRLSCAASGLTFTTYAMGWYRQAPGKERELVAAISRRGSRTYYADSVKGRFTISRDNAKNTVYLQMNSLKPEDTAVYYCARRAGSYPYGYTGYDYWGQGTQVTVSS
  polyreactivity (PSR sort gate): high polyreactivity

## QVQLVESGGGLVQAGGSLRLSCAASGSIFYKYTMGWYRQAPGKERELVAAISRSGGSTYYADSVKGRFTISRDNAKNTVYLQMNSLKPEDTAVYYCATTRRVPGEYWGQGTQVTVSS
  polyreactivity (PSR sort gate): high polyreactivity

## QLQLEESGGGLVQAGGSLRLSFAASGLTFGRNAMGWYRQATGKVREFVAAISKSGTSTYYADSVKGRFTISRDNAKNTVYLQMISLKPEDTAVYDCARTNYAKRWDFDYWGQGTQVTVSS
  polyreactivity (PSR sort gate): low polyreactivity

## QVQLVESGGGLVQAGGSLRLTCAASGSIIYTNGMGWYRQAPAKERELVAAISVSGGSTYYADSVKGRFTITRDNEKNTVYLQMNSLKPEDTAVYFCNAKDWYFYRYDYWGQGTQVTVSS
  polyreactivity (PSR sort gate): low polyreactivity

## QVQLVESGGGLVQAGGSLRLSSAGSGFTFYKNAMGWYRQAPGKERELVAAITSSGGSTYYADSVKGRFTISRDNEKNTVYLQMNSLKPEDTAVYYCNKVYSKHYGYWGQGSQVTVSS
  polyreactivity (PSR sort gate): high polyreactivity

## QVQLVESGGGLVQAGGSLRLSCAASGRIFKWNAMGWYRQAPGKDRELVAAINLSTRSTYYADSVKGRFTISRDNAKNTVYLEMHSLKTVDTAVYYCAAVTYANYYYDAYYYWGQGSQVTVSS
  polyreactivity (PSR sort gate): high polyreactivity

## QVQLVESGGGLVQAGGSLRLSCAAYGRIFTSYVMGWYRQAPGKERELVAGINSGRRTNYADSVKGRFTISRDNAKNTVYLQMNSLKPEDTAVYYCAKAGYWYKAHYYWGQGTQVTVSS
  polyreactivity (PSR sort gate): high polyreactivity

## QVQLVESGGGLVQAGGSLRLSCAASGFIFRYYAMGWYRQAPGKERELVAAITRGGSTYYADSVKGRFTISRDNAKNTVYLQMNSLKPEDTAVYDCAARLYTQYYYWGQGTQVTVSS
  polyreactivity (PSR sort gate): high polyreactivity

## QVQLVESGGGLVQAGGSLRLSCAASGITFSSYTMGWYRQAPGKERELVAVISSGGSTNYADSVKGRFTISRDNAKNTVYLQMNSLKPEETAVYYCAARRSKYIPYYGKWYYRAFDYWGQGTQVSVSS
  polyreactivity (PSR sort gate): high polyreactivity

## QVQLVESGGGLVQAGGSLRLSCAASGSTFAGNAMGWYRQAPGKERELVAAIDSSTGSTYYADSVKGRFTISRDNAKNTVYLQMNSLKPEDTPVYYCSREYYEGYEYWGLGTQVTVSS
  polyreactivity (PSR sort gate): low polyreactivity

## QVQLVESGGGLVQAGGSLRLSCAASGNIYAYYAMGWYRQAPGKEWELVAAITDSGGNTFYADSVKGRFTISRDNAKNTVYLQMNSLKPVDTAVYYCAADPDGWGFVYPRYDYWGQGTQVTVSS
  polyreactivity (PSR sort gate): low polyreactivity
